In paper PMC4894640, “RAB-10 Promotes EHBP-1 Bridging of Filamentous Actin and Tubular Recycling Endosomes” (PLoS Genetics, 2016):

Biological target: F-actin (polymerized non-muscle actin) (UniProt P60709 1-375)
Assay: co-sedimentation; GST fusion protein incubated with 40 ul freshly polymerized non-muscle actin (21 uM F-actin) or F-actin buffer alone, 30 min at room temperature, 150,000 x g 1.5 h at 24 C; supernatant and pellet on SDS-PAGE, coomassie or western blot, densitometry
Details: both partners purified

B1: GST-EHBP-1(260-510aa) (domain or fragment, C. elegans, UniProt G5ECW3 260-510, looked up)
chain: APAPIATNRHSRSSRASTEEKASTTIEFRVDSNSRHVPVTAIATPYYLQSGTMSRGRSNSPRAPSRDAVPQPIDGETLLSWCQRVTNGYSHVKVNDFMKSWNNGLALCAVLHSYRPDLIGDYETLDISNNMSGRISNIQRALDSLTLIGITEVPTVDMFLTPDRKQIEFLLQHLRRIFEGFDEGSTPASASDHRISRTFGINESEEKVVAMITEIRNQKDLEEAVDYRHIPDEVPVTPQLASRNPALNQPT
notes: C. elegans EHBP-1, central calponin homology (CH) domain, residues 260-510; Cloned into pGEX-2T modified with a Gateway cassette; also called GST-CH; GST-EHBP-1-CH (aa260-510); source: E. coli ArcticExpress, purified (glutathione-Sepharose 4B, eluted with glutathione); held on glutathione beads for the pull-down
P/S ratio (pellet/supernatant) with actin filaments: ~80%
